Experimental data reported in article PMC314469, “Protein Interaction Networks by Proteome Peptide Scanning” (PLoS Biology, 2004).

T1: Boi1 SH3 (BOI1_YEAST), P38041
T1 chain: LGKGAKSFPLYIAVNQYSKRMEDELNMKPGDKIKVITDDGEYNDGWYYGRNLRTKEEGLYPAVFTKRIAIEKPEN

T2: Yfr024 SH3 (LSB3_YEAST), P43603
T2 chain: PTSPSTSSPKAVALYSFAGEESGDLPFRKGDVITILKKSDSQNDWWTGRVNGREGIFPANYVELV

T3: Rvs167 SH3 (RV167_YEAST), P39743
T3 chain: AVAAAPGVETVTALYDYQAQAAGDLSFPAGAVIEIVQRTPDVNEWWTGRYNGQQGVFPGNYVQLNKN

T4: Yhr016c SH3 (YSC84_YEAST), P32793
T4 chain: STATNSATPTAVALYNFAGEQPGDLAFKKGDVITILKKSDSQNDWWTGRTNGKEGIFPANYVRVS

T5: Boi2 SH3 (BOI2_YEAST), P39969
T5 chain: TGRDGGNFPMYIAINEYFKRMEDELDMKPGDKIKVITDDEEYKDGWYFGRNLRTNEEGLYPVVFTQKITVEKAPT


Tests used:
Experiment in all cases: SPOT array
[1] = molecular target: T1, Boi1 SH3 (BOI1_YEAST), P38041
[2] = molecular target: T2, Yfr024 SH3 (LSB3_YEAST), P43603
[3] = molecular target: T3, Rvs167 SH3 (RV167_YEAST), P39743
[4] = molecular target: T4, Yhr016c SH3 (YSC84_YEAST), P32793
[5] = molecular target: T5, Boi2 SH3 (BOI2_YEAST), P39969

Binder	normalised SPOT signal, Boehringer light units (BLU); mean over the file's lines of this peptide [1]	normalised SPOT signal, Boehringer light units (BLU); mean over the file's lines of this peptide [2]	normalised SPOT signal, Boehringer light units (BLU); mean over the file's lines of this peptide [3]	normalised SPOT signal, Boehringer light units (BLU); mean over the file's lines of this peptide [4]	normalised SPOT signal, Boehringer light units (BLU); mean over the file's lines of this peptide [5]
AAQPPLPSRNVASG [YCR088W 446-459]	98.4	47300	59700	107000	62.8
YRIPDDPRKSQNKS [YKL178C 366-379]	95.9	351	21.3	80.5	71.9
WKPPDLPIRLRKRP [YIL156W 502-515]	7340	47500	12900	24500	2000
YDFPTVPARKFVQP [YNR006W 578-591]	1480	804	254	258	8.3
WNDPSDPTKGFQYL [YMR207C 1538-1551]	30.3	1300	48.9	25.5	47.1
YSNPQTPLRSLAGL [YDR420W 1404-1417]	80.5	2680	260	1600	104
YILPKNPFRVPSEM [YGR293C 125-138]	8450	808	198	124	384
YTNPRAPGKLQDSH [YIL054W 33-46]	153	478	64.7	238	26.1
WNLPWSPFKITTIM [YDR211W 95-108]	143	6480	870	1040	2670
YSLPMHPGRWWVHT [YHR072W 222-235]	79.5	712	78.1	308	158
YLDPFHPKRKFIGV [YNL005C 96-109]	178	88.7	57	34.3	58.3
YYGPNSPLKLDEEN [YKL108W 203-216]	0	0	49.9	36	12.4
YTTPKTPPRPKTIL [YKR028W 957-970]	42.6	28800	1060	27400	53.6

More lines, now with the values ahead:

normalised SPOT signal, Boehringer light units (BLU); mean over the file's lines of this peptide [1]	normalised SPOT signal, Boehringer light units (BLU); mean over the file's lines of this peptide [2]	normalised SPOT signal, Boehringer light units (BLU); mean over the file's lines of this peptide [3]	normalised SPOT signal, Boehringer light units (BLU); mean over the file's lines of this peptide [4]	normalised SPOT signal, Boehringer light units (BLU); mean over the file's lines of this peptide [5]	Binder
326	2320	1090	802	3020	WSYPYEPLRVLQVG [YDR415C 17-30]
156	172	63.3	209	38.1	YGPPTDPRKQKQAK [YDR001C 36-49]
137	3320	385	1750	26.2	YKIPVVPPRETYFA [YGR166W 507-520]
104	1590	25.1	168	231	YWAPVSPLKSINLF [YLR305C 1424-1437]
36.3	141	74.2	73.9	36.3	YQYPQTPSKVDISI [YEL040W 243-256]
107	474	28.3	96.3	20.3	YTLPLLPGKGGFRI [YFR048W 228-241]
208	1060	90.7	365	146	YRYPQTPMRLEIAV [YLR213C 295-308]
92.5	526	18.1	22.5	36.2	YPSPAQPPKSPLLN [YER114C 448-461]
62.4	596	498	272	259	YMQPIIPGKTESFE [YDR390C 151-164]
